# Laboratory results from patent publication US20140322129A1 (Genentech, published 2014).
# T1: irrelevant (Ig-V)-B7-H4 (Ig-C; D158-G236 including TM/CD D237-K282) chimeric membrane protein (Homo sapiens (Human), UniProt Q7Z7D3 158-282)
# T1 construct: Transiently expressed on 293 cells; also called construct-88B; B7-H4 Ig-C domain; not shown: irrelevant Ig-V domain
# T1 sequence: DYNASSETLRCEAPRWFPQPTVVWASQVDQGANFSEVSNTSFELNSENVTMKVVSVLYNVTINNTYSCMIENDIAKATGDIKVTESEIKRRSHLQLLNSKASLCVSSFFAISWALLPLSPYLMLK
# T2: cynomolgus monkey B7-H4 (cynomolgus monkey, UniProt Q7Z7D3 29-282 (human entry))
# T2 construct: Expressed on stably transfected 293 cells; also called cyno B7-H4
# T2 chain: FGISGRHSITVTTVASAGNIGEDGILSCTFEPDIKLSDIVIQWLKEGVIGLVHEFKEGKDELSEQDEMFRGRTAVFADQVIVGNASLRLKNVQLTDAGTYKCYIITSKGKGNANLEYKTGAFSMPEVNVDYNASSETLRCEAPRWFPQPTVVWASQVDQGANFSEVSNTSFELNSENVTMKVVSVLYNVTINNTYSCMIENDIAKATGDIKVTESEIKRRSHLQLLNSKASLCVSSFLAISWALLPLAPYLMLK
# B1: ch1D11 with light chain C43G (antibody, V domains shown)
# VH: QVQLQQSGAELVRPGTSVKMSCKASGYTFTSYWIGWAKQRPGHGFEWIGDIYPGGGYTNYNEKFKGKATLTADKSSSTAYMQFSSLTSEDSAIYYCARLDGSSYRGAMDSWGQGTSITVSS
# VL: DIQMTQSPSSLSASLGGKVTITCKASQGFNKYVAWYQHKPGQGPRLLIHYTSTLQPGIPARFSGSGSGRDYSFSISNLEPEDSATYFCLQYGNLLYAFGGGTKLEIKR
# notes: Dylight-488 or -650 labelled in the assay; also called slightly modified version of ch1D11
# B2: ch32D6 (antibody, human IgG1, V domains shown)
# VH: EVQLQQSGPDLVKPGASVKISCKASGYSFTGYYIHWMKQSHGKSLEWIGRVNPNNGDPIYNQKFRGKAILTVDQSSNTAYMELRSLTSEASAVYYCARVLFYYGSPFAYWGQGTLVTVSA
# VL: DIVMTQSPSSLIVTAGEKVTMSCRSSQSLFDSGSQRNYLTWFHQKPGRPPKLLIYWASTRESGVPDRFTGSGSGTDFTLTISSVQTEDLAVYFCQNDYSFPFTFGSGTKLEEK
# notes: also called chimeric 32D6
# B3: hu1D11.v1.8 (antibody, V domains shown)
# VH: EVQLVQSGAEVKKPGASVKVSCKASGYTFTSYWIGWVRQAPGQGLEWIGDIYPGGGYTNYNEKFKGRATITRDTSTSTAYLELSSLRSEDTAVYYCARLDGSSYRGAMDSWGQGTLVTVSS
# VL: DIQMTQSPSSLSASVGDRVTITCKASQGFNKYVAWYQQKPGKAPKLLIYYTSTLQPGVPSRFSGSGSGRDYTLTISSLQPEDFATYYCLQYGNLLYAFGQGTKVEIKR
# notes: also called h1D11.v1.8
# B4: ch22C10 (antibody, human IgG1, V domains shown)
# VH: QVQLQQPGAELVKPGTSVKLSCKASGYTFTNFWIHWVIQRPGQGLEWIGEIDPSDSYTNYNQKFKGKATLTVDKSSNTAYMQLSSLTSEDSAVYYCSREITTVDYWGQGTTLTVSS
# VL: QIVLTQSPTIMSASPGEKVTLTCSATSSISYMHWYQQKPGTSPKGWIYDTSKLAHGVPARFSGSGSGTSYSLTISSMEAEDAATYYCHQRRSYPFTFGSGTKLEIK
# notes: also called chimeric 22C10; ch2210
# B5: ch9B9 (antibody, human IgG1, V domains shown)
# VH: QVQLQQSGAELMKPGASVKMSCKATGYTFSSYWIEWVKQRPGHGLEWIGEILPGTSITTYNAKFKVKATFTADTSSNTAYMQLSSLTSEDSAVYFCARYYFGSSSFYFDYWGQGTSLTVSS
# VL: QAVVTQESALTTSPGDTVTLTCRSSTGAVTTSNYANWVQEKPDHLFTGLIGGTNNRVPGVPARFSGSLIGDKAALTITGAQTEDEAMYFCALWYNNHWVFGGGTKLE
# notes: also called chimeric 9B9
# How the values were obtained:
# [1] = biological target: T1, irrelevant (Ig-V)-B7-H4 (Ig-C; …); experiment: FACS of Dylight-488 or -650 labelled antibody on 293 cells transiently transfected with construct-88B
# Source text: To determine whether the B7-H4 antibodies bind to either the Ig-V or Ig-C domain of B7-H4, chimeric Ig domain molecules were engineered that contain either a B7-H4 (IgV; G28-F150 including spacer S151-V157)—irrelevant (Ig-C) (construct-88) or an irrelevant (Ig-V)-B7-H4 (Ig-C; D158-G236 including TM/CD D237-K282) (construct-88B) membrane protein using standard molecular cloning methods. N-terminal or cytoplasmic tags were attached to confirm that 293 cells transfected with these constructs express protein on the cell membrane (data not shown). Briefly, 293 cells were transiently transfected with constructs 88 & 88B using polyfect. After 48 hours, the cells were stained with 10 μg/ml of Dylight-488 or -650 labeled ch9B9, ch1D11, ch22C10 or ch32D6 for 30-40 minutes at 4° C., washed and analyzed on a BD FACS calibur.
# cynomolgus monkey B7-H4 = biological target: T2, cynomolgus monkey B7-H4; experiment: FACS titration on 293-cyno B7-H4 cells, geometric mean fluorescence
# Description: The small-scale preps were initially screened by FACS and Scatchard Analyses to determine species-specificity and affinity (Kd) to recombinant and endogenous B7-H4. Initial EC₅₀ and species specificity were determined by incubating different concentrations (0-10 μg/ml) of the humanized variants with 293 cells overexpressing recombinant human-, cynomolgus-, or mouse-B7-H4, and the tumor cell line, MX-1, expressing endogenous human B7-H4, at 4° C. for 40 minutes followed by a wash and staining with a secondary goat-anti-human IgG antibody conjugated to Dylight-650 for 20 minutes at 4° C. The fluorescent signal was acquired with a BD FACS Calibur and EC₅₀ values were determined with the Graph Pad program Prism 4.
Binder,binding result [1],binding result (cynomolgus monkey B7-H4)
B1,no binding (tested: 10 ug/ml),
B2,no binding (tested: 10 ug/ml),
B3,,binds
B4,no binding (tested: 10 ug/ml),
B5,no binding (tested: 10 ug/ml),
